What all share (test): scFv ELISA
On the technique in general: An ELISA detects its analyte on a solid surface through an enzyme-linked reagent.

Experiment [1] concerns the target T1, Peptide 4: Biotin-AGGGGSGGGGSGGGGSAAA-Tyr-acid (N-terminal biotin; C-terminal acid; no PC).
T1 construct: control peptide without PC
T1 peptide: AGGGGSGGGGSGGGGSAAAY
An outline of the steps:
(§1)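 Bound scFv was read as OD450 after HRP–anti-V5 detection, TMB development and HCl stop. PPE with BSA was incubated 1 h at RT on BSA-blocked wells coated overnight at 4° C. with peptide, or on streptavidin wells loaded 1 h with biotinylated PC-peptides at 1 μg/mL.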

The target of experiment [2] is T2, Peptide 8: Biotin-AEAAAKEAAAKEAAAKEAAAKAAA-Tyr-acid (N-terminal biotin; C-terminal acid; no PC).
T2 construct: control peptide without PC
T2 peptide: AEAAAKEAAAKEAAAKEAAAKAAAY
An outline of the steps:
as §1

The target of experiment [3] is BSA (UniProt P02769).
Experiment [4] addresses Peptide 5: Biotin-…-[Tyr(PC)]-acid.
For experiment [5], the target named is Peptide 1: Biotin-…-[Tyr(PC)]-acid.

Sequence of BSA (P02769 25-607 limits assumed): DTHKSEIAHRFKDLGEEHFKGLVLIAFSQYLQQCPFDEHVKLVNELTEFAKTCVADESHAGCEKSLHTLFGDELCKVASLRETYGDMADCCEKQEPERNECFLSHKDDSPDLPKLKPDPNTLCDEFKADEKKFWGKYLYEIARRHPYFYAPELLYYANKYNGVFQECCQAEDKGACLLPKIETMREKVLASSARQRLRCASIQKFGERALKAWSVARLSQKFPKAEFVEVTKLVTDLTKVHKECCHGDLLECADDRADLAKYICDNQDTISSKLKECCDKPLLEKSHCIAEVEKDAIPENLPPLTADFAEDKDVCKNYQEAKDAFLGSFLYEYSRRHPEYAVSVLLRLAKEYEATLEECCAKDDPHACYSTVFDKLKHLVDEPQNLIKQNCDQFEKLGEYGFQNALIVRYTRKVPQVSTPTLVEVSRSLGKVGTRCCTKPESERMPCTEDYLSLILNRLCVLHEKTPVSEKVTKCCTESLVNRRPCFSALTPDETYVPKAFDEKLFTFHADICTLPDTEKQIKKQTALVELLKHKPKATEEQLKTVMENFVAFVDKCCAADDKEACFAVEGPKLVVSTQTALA

B1: PcOxP_DB04_F06 (scFv, V domains shown)
VH: EVQLLESGGGLVQPGGSLRLSCAASGDTFSDFYMEWVRQAPGKGLEWVAASRNKANDYTTEYADSVKGRFTISRDNSKNTLYLQMNSLRAEDTAVYYCARDYYGSSYWYFDVWGQGTLVTVSS
VL: DIQMTQSPSSLSASVGDRVTITCTASESLSSSKHKVHYLAWYQQKPGKAPKLLIYGASNRYIGVPSRFSGSGSGTDFTLTISSLQPEDFATYYCAQFYSYPLTFGGGTKVEIK
notes: scFv in periplasmic extract
Take B1: the OD450 is 0.06 OD450 in experiment [1]; 0.06 OD450 in experiment [2]; 0.1 OD450 in experiment [3]; 1.3 OD450 in experiment [4]; 0.75 OD450 in experiment [5].

B2: PcOxP_DB03_H03 (scFv, V domains shown)
VH: EVQLLESGGGLVQPGGSLRLSCAASGFTGSDFYMEWVRQAPGKGLEWVAASRNKWNDYTTEYADSVKGRFTISRDNSKNTLYLQMNSLRAEDTAVYYCARDYYGSSYWYFDVWGQGTLVTVSS
VL: DIQMTQSPSSLSASVGDRVTITCTASESLSSSKHKHYLAWYQQKPGKAPKLLIYGASSRYSGVPSRFSGSGSGTDFTLTISSLQPEDFATYYCAQFYSYPLTFGGGTKVEIK
notes: scFv in periplasmic extract
As to B2, the OD450 in experiment [1] came to 0.07 OD450; in experiment [2], 0.07 OD450; in experiment [3], 0.12 OD450; in experiment [4], 1.32 OD450; in experiment [5] it was 0.27 OD450.

B3: PcOxP_DB01_A03 (scFv, V domains shown)
VH: EVQLLESGGGLVQPGGSLRLSCAASGFTFSDYYMEWVRQAPGKGLEWVAASRNKANDYTTEYADSVKGRFTISRDNSKNTLYLQMNSLRAEDTAVYYCARDYYGSSYWYFDVWGQGTLVTVSS
VL: DIVMTQSPDSLAVSLGERATINCTASESLYSSKHKVHYLAWYQQKPGQPPKLLIYGASNRYIGVPDRFSGSGSGTDFTLTISSLQAEDVAVYYCAQFYSYPLTFGGGTKVEIK
notes: scFv in periplasmic extract
With B3, the OD450 in experiment [1] came out at 0.05 OD450; in experiment [2], 0.04 OD450; in experiment [3], 0.07 OD450; in experiment [4], 1.38 OD450; in experiment [5] it was 0.86 OD450.

B4: PcOxP_DB04_H03 (scFv, V domains shown)
VH: EVQLLESGGGLVQPGGSLRLSCAASGFPFSDFYMEWVRQAPGKGLEWVAASRNKANDYTTEYADSVKGRFTISRDNSKNTLYLQMNSLRAEDTAVYYCARDYYGSSYWYFDVWGQGTLVTVSS
VL: DIQMTQSPSSLSASVGDRVTITCRASESLYSSLHKYLAWYQQKPGKAPKLLIYGASNLQIGVPSRFSGSGSGTDFTLTISSLQPEDFATYYCAQFYSYPLTFGGGTKVEIK
notes: scFv in periplasmic extract
Consider B4, for which the OD450 in experiment [1] amounted to 0.07 OD450; in experiment [2], 0.08 OD450; in experiment [3] it was 0.1 OD450; in experiment [4], 1.05 OD450; in experiment [5], 0.8 OD450.

B5: PcOxP_DB01_A05 (scFv, V domains shown)
VH: EVQLLESGGGLVQPGGSLRLSCAASGFTFSDYYMEWVRQAPGKGLEWVAASRNKANDYTTEYADSVKGRFTISRDNSKNTLYLQMNSLRAEDTAVYYCARDYYGNSYWYFDVWGQGTLVTVSS
VL: DIVMTQSPDSLAVSLGERATINCTASESLYSSKHKVHYLAWYQQKPGQPPKLLIYGASNRYIGVPDRFSGSGSGTDFTLTISSLQAEDVAVYYCAQFYSYPLTFGGGTKVEIK
notes: scFv in periplasmic extract
Consider B5, for which the OD450 was determined as 0.04 OD450 in experiment [1]; 0.04 OD450 in experiment [2]; 0.06 OD450 in experiment [3]; 1.28 OD450 in experiment [4]; 0.83 OD450 in experiment [5].

B6: PcOxP_DB04_F11 (scFv, V domains shown)
VH: EVQLLESGGGLVQPGGSLRLSCAASGFTGSDFYMEWVRQAPGKGLEWVAASRGKGNSYTTEYADSVKGRFTISRDNSKNTLYLQMNSLRAEDTAVYYCARDYYGSSTWYFDVWGQGTLVTVSS
VL: DIQMTQSPSSLSASVGDRVTITCTASESLYSSKHKVHYLAWYQQKPGKAPKLLIYGASNRYAGVPSRFSGSGSGTDFTLTISSLQPEDFATYYCGQFYSYPLTFGGGTKVEIK
notes: scFv in periplasmic extract
On to B6, for which the OD450 in experiment [1] was 0.07 OD450; in experiment [2], 0.06 OD450; in experiment [3], 0.1 OD450; in experiment [4], 1.27 OD450; in experiment [5], 0.58 OD450.

B7: PcOxP_DB01_B03 (scFv, V domains shown)
VH: EVQLLESGGGLVQPGGSLRLSCAASGFTFSSYYMEWVRQAPGKGLEWVAASRNKANDYTTEYADSVKGRFTISRDNSKNTLYLQMNSLRAEDTAVYYCARDYYGSSYWYFDVWGQGTLVTVSS
VL: DIVMTQSPDSLAVSLGERATINCTASESLYSSKHKVHYLAWYQQKPGQPPKLLIYGASNRYIGVPDRFSGSGSGTDFTLTISSLQAEDVAVYYCAQFYSYPLTFGGGTKVEIK
notes: scFv in periplasmic extract
For B7, the OD450 came to 0.05 OD450 in experiment [1]; 0.05 OD450 in experiment [2]; 0.08 OD450 in experiment [3]; 1.25 OD450 in experiment [4]; 0.82 OD450 in experiment [5].

B8: PcOxP_DB04_H07 (scFv, V domains shown)
VH: EVQLLESGGGLVQPGGSLRLSCAASGFTFEDFYMEWVRQAPGKGLEWVAASRNKANDYTTEYADSVKGRFTISRDNSKNTLYLQMNSLRAEDTAVYYCARDYYGSSYWYFDVWGQGTLVTVSS
VL: DIQMTQSPSSLSASVGDRVTITCTASESLYSSKHKVHYLAWYQQKPGKAPKLLIYGASNRVIGVPSRFSGSGSGTDFTLTISSLQPEDFATYYCAQFYSYPLTFGGGTKVEIK
notes: scFv in periplasmic extract
With B8, the OD450 in experiment [1] amounted to 0.06 OD450; in experiment [2], 0.05 OD450; in experiment [3], 0.09 OD450; in experiment [4], 1.02 OD450; in experiment [5], 0.58 OD450.

B9: PcOxP_DB04_G06 (scFv, V domains shown)
VH: EVQLLESGGGLVQPGGSLRLSCAASGFTFSDFYMEWVRQAPGKGLEWVAASRWKANDYTTEYADSVKGRFTISRDNSKNTLYLQMNSLRAEDTAVYYCARDYYESSYWYFDVWGQGTLVTVSS
VL: DIQMTQSPSSLSASVGDRVTITCTASQSLYSSKHKVHYLAWYQQKPGKAPKLLIYGASNRYIGVPSRFSGSGSGTDFTLTISSLQPEDFATYYCAQFYVYPLTFGGGTKVEIK
notes: scFv in periplasmic extract
Turning to B9, the OD450 came out at 0.07 OD450 in experiment [1]; 0.07 OD450 in experiment [2]; 0.11 OD450 in experiment [3]; 1.12 OD450 in experiment [4]; 1.03 OD450 in experiment [5].

B10: PcOxP_DB01_A08 (scFv, V domains shown)
VH: EVQLLESGGGLVQPGGSLRLSCAASGFTQSDFYMEWVRQAPGKGLEWVAAIRNKANSYTTEYADSVKGRFTISRDNSKNTLYLQMNSLRAEDTAVYYCARDYYGSSYWYFDVWGQGTLVTVSS
VL: DIVMTQSPDSLAVSLGERATINCTASESVYSSKNKKHYLAWYQQKPGQPPKLLIYGASNRYIGVPDRFSGSGSGTDFTLTISSLQAEDVAVYYCAQFYSYPLTFGGGTKVEIK
notes: scFv in periplasmic extract
Consider B10, for which the OD450 in experiment [1] was found to be 0.05 OD450; in experiment [2] it was 0.05 OD450; in experiment [3] it was 0.09 OD450; in experiment [4] it was 1.12 OD450; in experiment [5], 0.16 OD450.

B11: PcOxP_DB01_B02 (scFv, V domains shown)
VH: EVQLLESGGGLVQPGGSLRLSCAASGGTFSDFYMEWVRQAPGKGLEWVAASRNKANSYTTAYADSVKGRFTISRDNSKNTLYLQMNSLRAEDTAVYYCARDYYGSSYWYFDVWGQGTLVTVSS
VL: DIVMTQSPDSLAVSLGERATINCTASESLYSSKHKVHYLAWYQQKPGQPPKLLIYGASNRYIGVPDRFSGSGSGTDFTLTISSLQAEDVAVYYCAQFYSYPLTFGGGTKVEIK
notes: scFv in periplasmic extract
For B11, the OD450 worked out at 0.06 OD450 in experiment [1]; 0.05 OD450 in experiment [2]; 0.09 OD450 in experiment [3]; 1.41 OD450 in experiment [4]; 0.68 OD450 in experiment [5].

B12: PcOxP_DB01_A04 (scFv, V domains shown)
VH: EVQLLESGGGLVQPGGSLRLSCAASGFTHSDFYMEWVRQAPGKGLEWVAASRNKANDYTTEYADSVKGRFTISRDNSKNTLYLQMNSLRAEDTAVYYCARDYYGSSYWYFDVWGQGTLVTVSS
VL: DIVMTQSPDSLAVSLGERATINCTASESLYSSKHKVHYLAWYQQKPGQPPKLLIYGASNRYIGVPDRFSGSGSGTDFTLTISSLQAEDVAVYYCAQFYSYPLTFGGGTKVEIK
notes: scFv in periplasmic extract
For the molecule B12, the OD450 in experiment [1] turned out to be 0.04 OD450; in experiment [2], 0.04 OD450; in experiment [3] it was 0.07 OD450; in experiment [4] it was 0.75 OD450; in experiment [5], 0.31 OD450.

B13: PcOxP_DB01_B06 (scFv, V domains shown)
VH: EVQLLESGGGLVQPGGSLRLSCAASGFTFSSYYMEWVRQAPGKGLEWVAASRNKYNDYTTEYADSVKGRFTISRDNSKNTLYLQMNSLRAEDTAVYYCARDYYGSSTWYFDVWGQGTLVTVSS
VL: DIVMTQSPDSLAVSLGERATINCTASESLYSSKHKVHYLAWYQQKPGQPPKLLIYGASNRYIGVPDRFSGSGSGTDFTLTISSLQAEDVAVYYCAQFYSYPLTFGGGTKVEIK
notes: scFv in periplasmic extract
As for B13, the OD450 in experiment [1] was 0.05 OD450; in experiment [2] it was 0.05 OD450; in experiment [3], 0.08 OD450; in experiment [4], 1.45 OD450; in experiment [5], 0.79 OD450.

B14: PcOxP_DB04_H10 (scFv, V domains shown)
VH: EVQLLESGGGLVQPGGSLRLSCAASGATFSDFYVEWVRQAPGKGLEWVAASRNKANDYTTEYADSVKGRFTISRDNSKNTLYLQMNSLRAEDTAVYYCARDYYGSSYWYFDVWGQGTLVTVSS
VL: DIQMTQSPSSLSASVGDRVTITCTASESLYSSKHKVHYLAWYQQKPGKAPKLLIYGPSNRYIGVPSRFSGSGSGTDFTLTISSLQPEDFATYYCAQFYSYPLTFGGGTKVEIK
notes: scFv in periplasmic extract
On to B14, for which the OD450 in experiment [1] was found to be 0.08 OD450; in experiment [2], 0.07 OD450; in experiment [3] it was 0.1 OD450; in experiment [4] it was 1.01 OD450; in experiment [5], 0.54 OD450.

B15: PcOxP_DB04_H08 (scFv, V domains shown)
VH: EVQLLESGGGLVQPGGSLRLSCAASGFTFSDGYMEWVRQAPGKGLEWVAASRNKANDYTTEYADSVKGRFTISRDNSKNTLYLQMNSLRAEDTAVYYCARDYYGSSYWYFDVWGQGTLVTVSS
VL: DIQMTQSPSSLSASVGDRVTITCTASESLYSSKHKVHYLAWYQQKPGKAPKLLIYGASNLYSGVPSRFSGSGSGTDFTLTISSLQPEDFATYYCAQFYSYPLTFGGGTKVEIK
notes: scFv in periplasmic extract
With B15, the OD450 in experiment [1] came out at 0.07 OD450; in experiment [2], 0.06 OD450; in experiment [3], 0.09 OD450; in experiment [4] it was 1.42 OD450; in experiment [5], 0.85 OD450.
